{
  "source": "paper PMC12541460",
  "key": {"[1]": {"biological_target": "Mcm2-7 helicase labeled at the N terminus of Mcm6 with DyLight 650 (Mcm2-7^6N-650), used as Mcm2-7-Cdt1 (S. cerevisiae) (UniProt P29469)", "assay": "FRET or BRET; single-molecule FRET with colocalisation (CoSMoS), Orc6-tether assay: donor DyLight 550 on Orc6 of ORC, acceptor DyLight 650 at the N terminus of Mcm6 of Mcm2-7; origin DNA attached to the slide; 0.5 to 1 nM ORC, 3 to 10 nM Cdc6, 10 to 15 nM Mcm2-7-Cdt1; 25 mM HEPES-KOH pH 7.6, 300 mM potassium glutamate, 5 mM Mg(OAc)2, 3 mM ATP; only events with ORC and Mcm2-7 both on DNA for at least five frames; the high E_FRET state is read as the Orc6N-Mcm2-7N (tether) interaction"}, "[2]": {"biological_target": "Mcm2-7^6N-650 in complex with Cdt1 labeled with DyLight 650 (Mcm2-7^6N-650-Cdt1^C-650) (S. cerevisiae) (UniProt P29469)", "assay": "FRET or BRET; single-molecule FRET with colocalisation (CoSMoS), Orc6-tether assay: donor DyLight 550 on Orc6 of ORC, acceptor DyLight 650 at the N terminus of Mcm6 of Mcm2-7; origin DNA attached to the slide; 0.5 to 1 nM ORC, 3 to 10 nM Cdc6, 10 to 15 nM Mcm2-7-Cdt1; 25 mM HEPES-KOH pH 7.6, 300 mM potassium glutamate, 5 mM Mg(OAc)2, 3 mM ATP; only events with ORC and Mcm2-7 both on DNA for at least five frames; the high E_FRET state is read as the Orc6N-Mcm2-7N (tether) interaction"}, "[3]": {"biological_target": "Mcm2-7^6N-650 in complex with Cdt1 labeled with DyLight 650 (Mcm2-7^6N-650-Cdt1^C-650) (S. cerevisiae) (UniProt P29469)"}, "[4]": {"biological_target": "Mcm2-7^6N-650 in complex with Cdt1 labeled with DyLight 650 (Mcm2-7^6N-650-Cdt1^C-650) (S. cerevisiae) (UniProt P29469)", "remark": "listed apart in the source"}, "[5]": {"biological_target": "Mcm2-7^6N-650 in complex with Cdt1 labeled with DyLight 650 (Mcm2-7^6N-650-Cdt1^C-650) (S. cerevisiae) (UniProt P29469)", "remark": "listed apart in the source"}},
  "data": [
    {"substance": "origin recognition complex labeled at the Orc6 N-terminal region with DyLight 550 (ORC^6N-550), P54784 1-914; P32833 1-620; P54790 1-616; P54791 1-529; P50874 1-479; P38826 1-435", "values": [
      {"measurement": "median duration of the Orc6N-Mcm2-7N interaction", "setting": "[1]", "result": 26.4, "unit": "s"},
      {"measurement": "median time to form the high E FRET state after Mcm2-7-Cdt1 recruitment", "setting": "[1]", "result": 7.2, "unit": "s"},
      {"measurement": "percent of stably recruited Mcm2-7 that reached the high E FRET (tether) state", "setting": "[1]", "result": 91.5, "unit": "%"},
      {"measurement": "recruitment events in which a high E FRET (tether) state formed (of 162 events)", "setting": "[2]", "result": 152},
      {"measurement": "ORC molecules released within 7.8 s (three frames) after Cdt1 release", "setting": "[3]", "result": 39, "unit": "%"},
      {"measurement": "ORC molecules retained for more than 100 s on DNA after Cdt1 release", "setting": "[3]", "result": 24, "unit": "%"},
      {"measurement": "median time of ORC retention after Cdt1 release, Orc6 tether interaction absent at the time of Cdt1 release", "setting": "[4]", "result": 3.8, "unit": "s"},
      {"measurement": "median time of ORC retention after Cdt1 release, Orc6 tether interaction present at the time of Cdt1 release", "setting": "[4]", "result": 23.8, "unit": "s"},
      {"measurement": "ORC molecules released within one video frame (~2.6 s) after Cdt1 release, tether interaction present as Cdt1 was released", "setting": "[5]", "result": 25, "unit": "%"},
      {"measurement": "ORC molecules released within one video frame (~2.6 s) after Cdt1 release, tether not present as Cdt1 is released (of 33 molecules)", "setting": "[5]", "result": 16}
    ]},
    {"substance": "ORC that lacks the Orc6 N-terminal domain, labeled with DyLight 550 (ORC^6ΔN-550) (from UniProt P54784 1-914; P32833 1-620; P54790 1-616; P54791 1-529; P50874 1-479; P38826 1-435) (complex)", "values": [
      {"measurement": "percent of stably recruited Mcm2-7 that reached the high E FRET (tether) state", "setting": "[1]", "result": 82.3, "unit": "%"},
      {"measurement": "ORC molecules released within 7.8 s (three frames) after Cdt1 release", "setting": "[3]", "result": 80, "unit": "%"},
      {"measurement": "ORC molecules retained for more than 100 s on DNA after Cdt1 release (of 106 molecules)", "setting": "[3]", "result": 1}
    ]},
    {"substance": "CDK-phosphorylated ORC^6N-550 (Orc2 and Orc6 phosphorylated), P54784 1-914; P32833 1-620; P54790 1-616; P54791 1-529; P50874 1-479; P38826 1-435", "values": [
      {"measurement": "lifetime of the tether interaction, fold shorter than unphosphorylated ORC", "setting": "[1]", "result": 2.5, "unit": "fold"},
      {"measurement": "median time of tether formation, fold of unphosphorylated ORC", "setting": "[1]", "result": "> 2", "unit": "fold"},
      {"measurement": "percent of recruited Mcm2-7 that exhibited a stable high E FRET (tether) state", "setting": "[1]", "result": 53.9, "unit": "%"}
    ]},
    {"substance": "ORC with the Orc6 lnk1 region (aa 120 to 185) scrambled, labeled with DyLight 550 (ORC^6-lnk1scr-550) (from UniProt P54784 1-914; P32833 1-620; P54790 1-616; P54791 1-529; P50874 1-479; P38826 1-435) (complex)", "values": [
      {"measurement": "median lifetime of the tether interaction", "setting": "[1]", "result": 9.7, "unit": "s"},
      {"measurement": "median time to form the tether interaction, fold of WT ORC", "setting": "[1]", "result": 2, "unit": "fold"},
      {"measurement": "ORC molecules released after 7.8 s after Cdt1 release", "setting": "[3]", "result": 63, "unit": "%"},
      {"measurement": "ORC molecules retained for longer than 100 s after Cdt1 release", "setting": "[3]", "result": 13, "unit": "%"}
    ]},
    {"substance": "ORC that lacks Orc6N and has the Orc6 lnk1 region scrambled, labeled with DyLight 550 (ORC^6ΔN-lnk1scr-550) (from UniProt P54784 1-914; P32833 1-620; P54790 1-616; P54791 1-529; P50874 1-479; P38826 1-435) (complex)", "values": [
      {"measurement": "percent of stably recruited Mcm2-7 that reached the high E FRET (tether) state", "setting": "[1]", "result": 4.4, "unit": "%"},
      {"measurement": "ORC molecules released within 7.8 s (three frames) after Cdt1 release", "setting": "[3]", "result": 83, "unit": "%"},
      {"measurement": "ORC molecules retained for more than 100 s on DNA after Cdt1 release (of 106 molecules)", "setting": "[3]", "result": 0}
    ]}
  ]
}
